# Laboratory results reported in PMC10333884, “Large‐scale phosphomimetic screening identifies phospho‐modulated motif‐based protein interactions” (Molecular Systems Biology, 2023).
# What was measured:
# MAP1LC3A (human) = assay: FP; details: modification not given
# [1] = biological target: T1, TSG101 UEV (human), Q99816; assay: FP; details: modification not given
# T1 chain: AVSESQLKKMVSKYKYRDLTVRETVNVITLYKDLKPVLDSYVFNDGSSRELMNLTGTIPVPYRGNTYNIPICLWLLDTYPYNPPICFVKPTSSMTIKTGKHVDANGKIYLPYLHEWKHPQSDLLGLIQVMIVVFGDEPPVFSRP
# GGA1 VHS (human), Q9UJY5 = biological target: T2, GGA1 VHS (human), Q9UJY5; assay: fluorescence polarisation; displacement of a FITC-labelled probe peptide (5 nM in the measurement) from the protein domain (1-2 fold over the probe's KD) by a dilution series of unlabelled peptide; room temperature; 50 mM sodium phosphate pH 7.4; KD calculated from the displacement curve; for KPNA4 ARM one probe for each pocket
# T2 chain: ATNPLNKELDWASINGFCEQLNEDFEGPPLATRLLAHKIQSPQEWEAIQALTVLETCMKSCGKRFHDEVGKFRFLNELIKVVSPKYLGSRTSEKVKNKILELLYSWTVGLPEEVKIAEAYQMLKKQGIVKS
# RANBP2 RanBD4 (human) = assay: as above
# [2] = biological target: SNX27 PDZ (human), Q96L92; assay: FP; details: modification not given
binder,measurement,setting,value
QNLSREWHDVQVSSAY [TPD52L2 E],IC50,MAP1LC3A (human),223 µM
HSGNVEPTAPPYLQES [TMEM55A E],IC50,[1],37 µM
HSGNVTPTAPPYLQES [TMEM55A pS],IC50,[1],34 µM
"INLFEKEKEMKKSPTS (modifications not checked) [GTSE1_(145–160), wild‐type, Q9NYZ3 145-160]",Kd,"GGA1 VHS (human), Q9UJY5",96 µM
"KYSDDTPLPEPSYKYN (modifications not checked) [DHX38_(260–275), phosphomimetic (E), Q92620 260-275]",Kd,RANBP2 RanBD4 (human),470 µM
GMVSETSFNGG [DAXX E],IC50,[2],117 µM
"DLLESPDVGLLKLAS (modifications not checked) [JUN_(59–73), phosphomimetic (E), P05412 59-73]",Kd,"GGA1 VHS (human), Q9UJY5",450 µM
NGCSSPTAPLSPMSP [GJA1 pS],IC50,[1],420 µM
"ETYYLSDEPLLGPPVG (modifications not checked) [GTSE1_(145–160), phosphomimetic (E), Q9NYZ3 145-160]",Kd,"GGA1 VHS (human), Q9UJY5",199 µM
GMVSSTSFNGG [DAXX pS],IC50,[2],427 µM
NGCSSPTAPLEPMSP [GJA1 E],IC50,[1],232 µM
QNLSRSWHDVQVSSAY [TPD52L2 pS],IC50,MAP1LC3A (human),60 µM
